Measurements published in the supplement of paper PMC12764529.
± gives the half width of the 95% confidence interval.

Experiment: folding stability dG unfold (combined trypsin and chymotrypsin); higher = more stable
Protocol: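 Folding stability of de novo designed mini-proteins (<80 aa, no Cys; designed by TrROS, TrMRF, ProteinMPNN and the joint model) was measured by cDNA display proteolysis with trypsin and chymotrypsin. Each protease was used at 11 concentrations in a threefold dilution series plus a no-protease condition. K50 was inferred by Bayesian fitting of sequencing counts, and dG unfold was derived against a sequence-predicted unfolded-state K50 (Tsuboyama et al. method). Sequences shown include variable-length N-terminal GS-type padding (SAGGSAGG...) inside a display construct carrying a PA tag. Rows were kept only if the AF2 dimer inter-PAE was >15, to exclude likely homo-oligomers.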

| Sequence | folding stability dG unfold |
| --- | --- |
| SAGPNPGEPLTVVTETSTEKVPTSSGRAVPVTTSTASNGTVIEKFPDGKVLVFEPGKGPENKTVLPEVSAGG [r19_199_JUSTAS] | < -1 kcal/mol |
| SAGAPVVEKKRTIPSPLGAPAYLVFVPEEDRIVFTRPGSGEPVELSVPPDSEVEVPAPPSGSLTYRWESAGG [r19_118_JUSTAS] | < -1 kcal/mol |
| SAGGSAMTLVEEVPVAPGTLVEAESIAVSPEGKIYRSRVEGLEPGRARVTVPVEELPGNLEDPELISAGGSA [r15_909_JUSTAS] | < -1 kcal/mol |
| SAGGSAGGSAGGSGVRLRFPADYPELVEKLAKAFGLKPKSFNPDTGEVDIGNEPGAKIVSAGGSAGGSAGGS [r4_3_TrMRF] | < -1 kcal/mol |
| NWKILEEEPNPDNGKRVIVIEHEPDPENGQMNMPIELFDPKKGKPRRIPVRMDSPETMIDEIKDQLPPDLIS [r1_156_TrROS] | < -1 kcal/mol |
| SAGGSAKITIEPVKDQYRIEIKIPVFDPNGKKDPIEIPMYMPPDDPERMKDQILDWAREKNPDLIISAGGSA [r15_1050_TrROS] | < -1 kcal/mol |
| SAGGPAEVKIPIMKMEPPKPERVYDPDDGQERWKMEHQMRMEMIPITIRADDNPEEANDIANDFGITSAGGS [r16_467_TrROS] | < -1 kcal/mol |
| SAGGSAGGSRTIHIPHNAMDKMPPSFEKKIRELADELNIDIEHNNNWMTIPVKGLTEEAIKEFSAGGSAGGS [r12_945_TrROS] | < -1 kcal/mol |
| SAMPLSELEFVEERVFPDPPVRISVYRLPSPGVWVVPVLEPGTGRPRLVELEAADGVLDEEEVRAAVLESAG [r14_948_JUSTAS] | < -1 kcal/mol |
| SAGGSAGGSPYKEIPFRFPENGYKVHIKKDPNGSVKIYVMGPNMRERTIPPDEPLEIEPGARLSAGGSAGGS [r12_1003_TrROS] | -0.46 ± 0.63 kcal/mol |
| SDEVSRPVDVRYYITLTEPPTSRPRRGPTDELEVESERPVTVTEMPAGQEEAVRAELEPRGVAVSVTPVVSA [r9_1209_JUSTAS] | < -1 kcal/mol |
| SAGGSAGGSAGAPDEPIQITMRLKYPDGQKREHNTPFPPGKDIEIKNMPPGAKIENIEITSAGGSAGGSAGG [r11_181_TrROS] | < -1 kcal/mol |
| SAGMPESEVIPLPDGSVVEVRRWPDSELRFVFPPGGPATVERHDTRTGTVETTPVSAADPEAAAAAVLASAG [r5_674_JUSTAS] | < -1 kcal/mol |
| SAGGSAGGSAGPLVLVKELKSSRPVFDKNGKLIGTKTEVLVEAELLAPPANPDDPRYKETSAGGSAGGSAGG [r11_131_TrMRF] | < -1 kcal/mol |
| SAGGKITITLPNGAKIEIEEEEVEVDGKTYLVFKAKITNKDGSKYLITVVIDKKTKEIVSISIEKLPSAGGS [r8_492_TrROS_Hall] | > 6 kcal/mol |
| SAGGSAGGSGMPVVLLEATFDPNNPGTTYRLTTVDPNTGGVAESEIPASEAEARGLGPLDVLESAGGSAGGS [r12_123_JUSTAS] | < -1 kcal/mol |
| SAGGSAGGSNGNYRIKIKIRKPNGEPKSQHTFNIPSPEQIKESLAQQPGFPPDRIEDVEVGPYSAGGSAGGS [r12_182_TrROS] | < -1 kcal/mol |
| SAGGSAGGSAGGMVTIETPDEKYEITPTPEDRVLTKVYKKGKEIIKTKDPNSDKTEILDESAGGSAGGSAGG [r7_683_JUSTAS] | < -1 kcal/mol |
| SAGGSVEISEEELEKLIEEGRVDKKEEYPEGVPSKKYETEKLGKELGKPITINVTTTPDGKAVAKVLKSAGG [r13_163_JUSTAS] | < -1 kcal/mol |

| Sequence | folding stability dG unfold |
| --- | --- |
| SAGSEIYEAAKAGKKATVPVETTLTEVTEESVTPLGGPTLKAREVARTTFNAKLTKFDPKTGKITTDLPSAG [r5_5_JUSTAS] | < -1 kcal/mol |
| SAGGSAGGSAGKNVPFRWRIRDPKNGNEKTIDVPMDSPEDMNRAADELQKKFPGYKVEPYSAGGSAGGSAGG [r11_233_TrROS] | < -1 kcal/mol |
| SAGGSAGGMELVSEERLPDGSRRFTVRVDPDKSLSLTLPDAGEPVAATVTETFPEEGLVTVELASAGGSAGG [r6_177_JUSTAS] | < -1 kcal/mol |
| SAGGSAGGSAGGTDKVKEKLAPGRDITVLKIDPTDSVVNVTVKSPDSDVDTVVEVDPELISAGGSAGGSAGG [r7_303_JUSTAS] | < -1 kcal/mol |
| DNMDMEPEGYDPDNGHYEWEMRTDNQWTEMTMRPKPRIPIPLEELKNIADYLADQNPDNKEKAEKIAEKLAS [r1_330_TrROS] | < -1 kcal/mol |
| SSDDKEEQKKRQKAQAKPKPKMEPVWVPIEVRDPDNGRPFEIPVRMYRTPNGKIEPLPEEELKDWAKDLFSA [r9_1056_TrROS] | < -1 kcal/mol |
| SAGGSAGGSMVEVVVRPPGGPEYRVSPETSPEEVRARVEAEAGPPPEIEISEEEAKALGVPARSAGGSAGGS [r12_379_JUSTAS] | < -1 kcal/mol |
| SAGGSGNPNAPVPYIPKGYKTVPIPLKGDPNASEEELKKKLEEAKEKIKKEIDPTPDGIPIEINEGSAGGSA [r2_149_JUSTAS] | < -1 kcal/mol |
| SAGGSAGGSMKVRLLIGEEEVEKAIAEGIPKEVMKPEKEKIPSSTDPRFAGNPEPVLLYYIGESAGGSAGGS [r12_78_JUSTAS] | < -1 kcal/mol |
| SAGGGMDTPLYRTLPPPPVVEKREVWLSGPSKEEAEKKAKEVEEEFKKEGLEVEVKIIPAEEAEKLSSAGGS [r8_210_JUSTAS] | < -1 kcal/mol |
| SAGMDIYTETVVPLRVETDEEEIEEIIEKAKEEAEKKGYKPVEIPVETEPSPEGKTLVTIPVKLLKKAPSAG [r14_109_JUSTAS] | < -1 kcal/mol |
| SAGGSAGGSAGGTIEELAEKLPNVDLKPVEPGPGMRRIKAQPPNGKKFTIMVDDGKIHIQSAGGSAGGSAGG [r7_26_TrROS] | < -1 kcal/mol |
| SAGGMDEEELRELLAEDDATVLTEDPDGLLVAFTLPDGTARVFPVPSRERLDRLIAEVPDATVTTLPASAGG [r13_600_JUSTAS] | < -1 kcal/mol |
| SAGGITLEELRGMPPEQLADWLVQEAQEQNKKEGNPNRPVTVEFEYGDQPLKIEITPNGKIEKIELDSAGGS [r16_431_TrROS] | < -1 kcal/mol |
| SMTVITAEPNLPPEKKAAVEAVRERVKANPDKPMDADEIKEFIKEEFGDPNFTILKVTIIPKAPPVVALSSA [r9_620_JUSTAS] | < -1 kcal/mol |
| SAGGSTVTVEVETEEEAEALLQGLPELEEVVVVIPGEGEPVEKPVKIEPPAPGVLGETPLPRPSPRLLSAGG [r13_183_JUSTAS] | < -1 kcal/mol |
| SAGGSAGGSAMTSVKRSSGSWSITITTPDSTTTTTKAATEEEVQAEVEELKKPGIKVELSPESAGGSAGGSA [r18_103_JUSTAS] | < -1 kcal/mol |
| SAGGSAGGSPKEYYIRVKDPEKAKEIMKPLGWPIKPGDEFPIKDPEDILEKLPGIEGIEIHPVSAGGSAGGS [r12_571_TrROS] | < -1 kcal/mol |
| SAGGSAGGSAGDLGLEDDTFILKATYPDGTPATIPLKKSEISKISKDNIKSIEFYPKSKLSAGGSAGGSAGG [r11_779_JUSTAS] | < -1 kcal/mol |

| Sequence | folding stability dG unfold |
| --- | --- |
| SAGGGSMVETRTLEVEEVEDGTVTLSRTLYPGGLVRLTRTRVPPADPSVAEEVETELVYVSPEEAAASAGGS [r16_161_JUSTAS] | < -1 kcal/mol |
| SAGGSAPVIPVKSEEEAKEVAKAASPDKDLLFKYPKGNVKLITIDPKNGPKITVKETLPVSPEKALSAGGSA [r15_577_JUSTAS] | < -1 kcal/mol |
| SAGVPVDLHHDPKGVELATSTSYTPSGEPVGSSSSTHTVPGTGTPVSVYSPVYDDGAGLITRTYLAKLSAGG [r19_185_JUSTAS] | < -1 kcal/mol |
| SAGIVIPFEELKEFMSDEEIEDIAREFAQDNGYPPKKIEIEPHPNPGDWITIKAEPDNGNKAPIVFRLPSAG [r5_745_TrROS] | < -1 kcal/mol |
| SFKLPEGEEREFRLPDVPIEIEVDDGPGMIKINIYPPENPGKPVFEHEVPPGEIKPIEIPPELRDAMKKQSA [r9_1051_TrROS] | < -1 kcal/mol |
| SAGMDKPVATFTRQKTPDGTEVLHVTVTTTAAGTGTTDPSTFTFPAGSDPAVVAAKVRAAGVAAVAFEPSAG [r5_37_JUSTAS] | < -1 kcal/mol |
| SSVNWKVLETKEEPETVVTLLENPENPELIVEVPVKRFEDPDSERREVTKTVWLPATGETLETEPAVIPLSA [r9_18_JUSTAS] | < -1 kcal/mol |
| SAGMPPVRVVQAPSTVYTDPSPPTLTVESVFTGEGRLSTTSSTVPAPPELADLPAGAAVSRSFTVTVLPSAG [r5_714_JUSTAS] | < -1 kcal/mol |
| SAGGSGTTSPVLVEETVFTDGSATYTRKKVELEEVERPPVPPVEIPEEAREAGLAGDYEAAEAILASAGGSA [r2_196_JUSTAS] | < -1 kcal/mol |
| SAGGSAGGSAGGGPDWVLRRRTLEESSPVSTTPNPTGRRRTGYRTLVREEEVVLPPDLESAGGSAGGSAGGS [r10_524_JUSTAS] | < -1 kcal/mol |
| SAGGIREIADELGMPPGDKVTIDIERPRDGKPQTQEIEFPPDNVEDILDQMGIPPDQMKITKLKVDKDSAGG [r13_681_TrROS] | < -1 kcal/mol |
| SAGGSAGGSMTFKLKDGKVITYDPANPTLHFPGPPETIPTGGANIAQTIADLKAKGFDYEEVVESAGGSAGG [r6_340_JUSTAS] | < -1 kcal/mol |
| SAGGSAGGSAGGPYLRIKWKHPENGKTREIEIPFEGKPLEEIADNIKKEHGMTVTDIEPVSAGGSAGGSAGG [r7_590_TrROS] | < -1 kcal/mol |
| SAGGSAGGSDKFKIDNIYPDPDMWVYRIKFPKGKSHTFPIPEENIDEFAEDDGFNVEPLGPVPSAGGSAGGS [r12_676_TrROS] | < -1 kcal/mol |
| SAGGSAGGSASAEELAEALRREHPDAEVTVTVTPVPREVGPRPVLEREVTVESVRSPEEPASAGGSAGGSAG [r3_118_JUSTAS] | < -1 kcal/mol |
| SAGGSAGGSAGGMRDIAREFAEKNGDKNKPVRIKMPGGKKHNFTPDDIPDMPFDNWTIEPSAGGSAGGSAGG [r7_863_TrROS] | < -1 kcal/mol |
| SAGGSAGGSAGGKRRKITIPFKMPDGRWHPIRANMSEEQLEDIVEHHPFFKPAIKKALKKSAGGSAGGSAGG [r7_637_TrROS] | < -1 kcal/mol |
| SAGGSAGGSAGDNGKPEVKPVRIPIFIPGPKEQAKRIANYLYGFGMPIDVEVFDPDGKPISAGGSAGGSAGG [r11_703_TrROS] | < -1 kcal/mol |
| SYPRDPSGKITAKITITRDPDGIYRAEIDVVDKDNKPLARASAPYENPYPGVARLKEEAEALAEELEKKKSA [r9_739_TrMRF] | < -1 kcal/mol |
